This is an account of results in paper PMC7797001 (Molecular cell, 2020).

The target of data set [1] is SP-BM generated from human proSP-B by proteinase K (human) (UniProt P07988). In words: reducing and non-reducing SDS-PAGE.
The data set “non-reducing SDS-PAGE” concerns the molecule itself. Nature of the data set: non-reducing SDS-PAGE.

In the case of “SP-BM generated from human proSP-B by proteinase K (from UniProt P07988 201-279) (domain or fragment)”, in data set [1], the stoichiometry N (as a rule, the number of molecules, sites or subunits per partner or assembly) turned out to be 2.

B1: SP-BM purified from bovine lungs (natural protein, UniProt P15781 188-266, looked up)
chain: FPIPIPYCWLCRTLIKRIQAVIPKGVLAMTVAQVCHVVPLLVGGICQCLVERYSVILLDTLLGRMLPQLVCGLVLRCSS
Take B1: the “stoichiometry N” value in “non-reducing SDS-PAGE” worked out at 2.
